Measurements from the supplement of paper PMC10567573.

B1: NECAB1 (parent)
chain: FSPNSPQFNVSGPGLLEEDNQWMT
B2: NCK2 (parent)
chain: YVERKNSLKKGSLVKNLKDTLGLG

Variants of: B1
Experiment: protein stability index of a GFP-peptide fusion (GPS, HEK-293T) (PSI 1-6); higher = more stable
Settings: c terminus: a fixed tail appended
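Note: lentivirally expressed fusions sorted by FACS into six bins by GFP to DsRed ratio, PSI derived from sequencing read proportions per bin multiplied by bin number.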

Protein stability index, by site and new letter:
N4: Q 2.8; K 2.98; S 2.89
G12: Q 3.04; T 3.22; D 3.13; R 2.7; A 2.85; L 2.47
L16: N 2.97; G 2.73; A 3.29; E 4; W 2.25; T 3.53
F8: S 4; A 4.17; W 1.43; G 3.83; I 3.26; D 4.15; Q 3.79; L 3.04
P6: T 2.86; A 2.95; L 2.51; S 2.62; I 2.34; H 2.14; N 2.56; R 2.05; G 2.34
L15: T 3.25; K 2.97; H 3.19; V 3.23; A 3.26; F 2.91
E18: A 2.82; Y 1.82; D 2.91; G 2.02; T 2.23; F 2.61; S 1.88; K 3.2; P 1.84; N 2.83; V 2.31
W22: D 4.65; E 4.42; A 3.96; I 3.67; N 4.07; P 4.21
M23: E 4.15; G 3.66; S 3.5; K 4.15; N 3.45; P 2.87; L 2.76
P13: R 2.79; Y 2.75; V 2.75; E 3.58; L 2.39; D 3.46; N 3.5; M 2.65
G14: H 2.47; C 3.32; N 2.89; K 2.3; Y 2.22; S 3.04; A 3.44; W 1.96
S5: W 2.27; E 3.82; A 2.72; L 2.93; Y 1.94; R 2.78
Q7: C 2; Y 1.72; S 2.66
D19: L 2.3; N 2.57; Q 2.5; M 2.57; T 2.1
Q21: E 3.69; G 2.54; C 2.14; S 2.15; L 2.08; A 2.45; K 3.06; T 2.41; D 1.97
N9: G 3.23; W 2.41; E 3.77; T 2.62; Q 2.67; I 2.05; R 2.32; V 2.09
S2: H 2.17; W 2.58; Q 2.95; G 2.08; Y 3.49; I 1.76; N 3.28
S11: W 3.29; V 2.51; D 3.73; A 3.02; G 2.76; K 2.44; Y 1.95
E17: I 2.53; V 2.33; H 2.72; D 2.74; K 1.97; Y 2.46
V10: K 2.94; N 3.68; S 3.19; M 3.33; C 2.42; G 2.92; F 2.28; A 3.5; W 1.87
F1: N 4.63; T 4.11; M 4.7; H 4.23; G 4.4; E 4.79
N20: P 3.28; G 2.79; W 2.46; M 2.54; C 2.63; S 2.68; D 3.86
T24: P 2.69; Q 3.04; F 1.88; R 2.97; D 3.57; H 2.99
P3: H 3.17; G 2.2; K 3.11; F 2.59; T 3.05; L 2.87; A 3.26; E 3.71; R 2.88

Variants of: B2
Experiment: as above
Settings: c terminus: a fixed tail appended

Protein stability index of substitutions, site by site:
S12: Q 2.27
